Here are results for 26 molecules from patent US20040018558A1 (published 2004).

Where no end group is shown, it is not given here.

T1: human thrombin receptor (PAR1) (human, UniProt P25116 42-425)
T1 sequence (looked up): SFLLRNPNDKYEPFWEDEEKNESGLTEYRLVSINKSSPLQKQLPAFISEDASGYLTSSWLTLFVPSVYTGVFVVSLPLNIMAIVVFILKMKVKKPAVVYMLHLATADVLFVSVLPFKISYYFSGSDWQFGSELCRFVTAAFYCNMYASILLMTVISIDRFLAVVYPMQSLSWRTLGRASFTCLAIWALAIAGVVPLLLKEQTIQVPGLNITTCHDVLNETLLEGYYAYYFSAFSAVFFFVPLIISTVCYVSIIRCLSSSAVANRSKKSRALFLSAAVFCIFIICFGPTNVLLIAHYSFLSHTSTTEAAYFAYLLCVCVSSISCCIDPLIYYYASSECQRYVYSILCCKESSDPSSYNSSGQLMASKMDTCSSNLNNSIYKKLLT

B1: L6 ICENLKDCGLF (peptide, not shown: small tags and cut ends)
chain: ICENLKDCGLF
modifications: cysteine pairing not given here; also: fused to lysate carrier and linker, not given here

The first test concerns the target T1, human thrombin receptor (PAR1). As to the kind of experiment: cell-based or functional assay.
As for MGIKNNLKDCGLF [Gαi C-terminal minigene peptide (pcDNA-Gαi)], the “decrease in thrombin-mediated HA-MAPK activity against pcDNA” value (shortened to “decrease”) was 59%.

MGLHDNLKQLMLQ [Gα13 C-terminal minigene peptide (pcDNA-Gα13)]: the “decrease” value was 77%.

On to MGLQENLKDIMLQ [Gα12 C-terminal minigene peptide (pcDNA-Gα12)], for which the “decrease” value was found to be 50%.

On to MGLQLNLKEYNAV [Gαq C-terminal minigene peptide (pcDNA-Gαq)], for which the “decrease” value stood at 57%.

In the case of MGNGIKCLFNDKL [GαiR control minigene peptide (Gαi1/2 carboxyl terminus in random order)], the “thrombin mediated increase of HA-MAPK activity” value came out at 4.46 fold.

The target of the next test is T2, light-activated rhodopsin (bovine rod outer segment membranes) (bovine, UniProt P02699 1-348, retinylidene chromophore bound to Lys-296).
T2 construct: whole, on cells; native receptor in membrane fragments immobilised on wells, not intact cells; also called metarhodopsin II; MII
T2 sequence (P02699 whole entry, the tested form may be a part): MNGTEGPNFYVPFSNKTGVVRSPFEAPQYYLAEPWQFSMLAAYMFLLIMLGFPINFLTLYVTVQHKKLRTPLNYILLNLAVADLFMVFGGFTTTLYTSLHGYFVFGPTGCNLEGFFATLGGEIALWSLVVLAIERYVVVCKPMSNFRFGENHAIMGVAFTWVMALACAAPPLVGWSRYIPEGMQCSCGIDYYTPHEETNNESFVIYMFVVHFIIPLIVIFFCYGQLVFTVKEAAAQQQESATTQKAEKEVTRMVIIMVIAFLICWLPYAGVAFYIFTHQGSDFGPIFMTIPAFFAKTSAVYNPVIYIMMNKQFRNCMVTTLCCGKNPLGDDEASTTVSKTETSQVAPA
The test can be described thus: not detailed in the sentence.
Take LLENLRDCGMF (also called HAP) [Peptide 8 (LLENLRDCGMF)]: the “fold binding against the native sequence” value was 1000 fold.

For a further test, the target named is T3, dark-adapted rhodopsin (bovine rod outer segment membranes) (bovine, UniProt P02699 1-348, retinylidene chromophore bound to Lys-296).
T3 construct: whole, on cells; also called dark-adapted bovine rhodopsin
T3 sequence (P02699 whole entry): as the sequence (P02699 whole entry, the tested form may be a part) above
The test can be described thus: LacI display panning, dark-adapted ROS membranes.
With VRDNLKNCFLF (peptide, not shown: small tags and cut ends, also: fused to LacI carrier via linker, letters not given here) [Clone No. 3 (Table X) VRDNLKNCFLF], the binding result is on record as “binds”.

For IGEQIEDCGPF (peptide, not shown: small tags and cut ends, also: fused to LacI carrier via linker, letters not given here) [Clone No. 7 (Table X) IGEQIEDCGPF], the binding result is reported as “binds”.

Turning to IREKWKDLALF (peptide, not shown: small tags and cut ends, also: fused to LacI carrier via linker, letters not given here) [Clone No. 2 (Table X) IREKWKDLALF], the binding result is on record as “binds”.

For IRENLKDLGLV (peptide, not shown: small tags and cut ends, also: fused to LacI carrier via linker, letters not given here) [Clone No. 21 (Table X) IRENLKDLGLV], the binding result was “binds”.

For IRGTLKGWGLF (peptide, not shown: small tags and cut ends, also: fused to LacI carrier via linker, letters not given here) [Clone No. 41 (Table X) IRGTLKGWGLF], the binding result was “binds”.

Take SLEILKDWGLF (peptide, not shown: small tags and cut ends, also: fused to LacI carrier via linker, letters not given here) [Clone No. 33/37 (Table X) SLEILKDWGLF]: the binding result is reported as “binds”.

In the case of IRNNLKRYGMF (peptide, not shown: small tags and cut ends, also: fused to LacI carrier via linker, letters not given here) [Clone No. 17 (Table X) IRNNLKRYGMF], the binding result was “binds”.

Take IRENFKYLGLW (peptide, not shown: small tags and cut ends, also: fused to LacI carrier via linker, letters not given here) [Clone No. 26 (Table X) IRENFKYLGLW]: the binding result is on record as “binds”.

The target in a further test is T4, rhodopsin (activation state not stated) (bovine, UniProt P02699 1-348).
T4 construct: whole, on cells; same protein as m1; also called EDTA-washed rhodopsin
T4 sequence (P02699 whole entry): as the sequence (P02699 whole entry, the tested form may be a part) above
The test can be described thus: ELISA of lysates, OD450 with receptor minus without receptor. As for the experimental part:
The methods of Example 7 repeated using rhodopsin screening with a Gt library. To identify the rank order of binding, the lysates were analyzed using ELISA methods in which the secondary antibody was conjugated to HRP. Following addition of the substrate, the microplate was read using a spectrophotometer. The binding is the OD₄₅₀ for wells with receptor—OD₄₅₀ for wells in which no receptor (control wells with empty lipid vesicles).
Take ISKNLRDCGLL (peptide, not shown: small tags and cut ends, also: fused to fusion carrier of the lysate via linker, not given here) [L13 ISKNLRDCGLL]: the ELISA turned out to be 0.187 OD450.

With IHDRLKDCGLF (peptide, not shown: small tags and cut ends, also: fused to fusion carrier of the lysate via linker, not given here, first of two rows labelled L10) [L10 IHDRLKDCGLF], the ELISA was 0.506 OD450.

LRENLKDCGLL (peptide, not shown: small tags and cut ends, also: fused to fusion carrier of the lysate via linker, not given here) [L14 LRENLKDCGLL] had an ELISA of 0.833 OD450.

As to ILESLNECGLF (peptide, not shown: small tags and cut ends, also: fused to fusion carrier of the lysate via linker, not given here) [L34 ILESLNECGLF], the ELISA was 0.603 OD450.

The molecule LLDILKDCGLF (peptide, not shown: small tags and cut ends, also: fused to lysate carrier and linker, not given here) [L38 LLDILKDCGLF] yielded an ELISA of 0.823 OD450.

On to IVKNLEDCGLF (peptide, not shown: small tags and cut ends, also: fused to lysate carrier and linker, not given here) [L8 IVKNLEDCGLF], for which the ELISA came out at 0.257 OD450.

As for VRDILKDCGLF (peptide, not shown: small tags and cut ends, also: fused to fusion carrier of the lysate via linker, not given here) [L15 VRDILKDCGLF], the ELISA was 0.621 OD450.

In turn, IRGSLKDCGLF (peptide, not shown: small tags and cut ends, also: fused to LacI carrier via linker, letters not given here, also called L20) [Clone No. 13 (Table IX) IRGSLKDCGLF] displayed an ELISA of 0.423 OD450.

In turn, ILENLKDCGLF (peptide, not shown: small tags and cut ends, also: fused to fusion carrier of the lysate via linker, not given here) [L3 ILENLKDCGLF] registered an ELISA of 0.839 OD450.

Molecule ILQNLKDCGLF (peptide, not shown: small tags and cut ends, also: fused to fusion carrier of the lysate via linker, not given here) [L17 ILQNLKDCGLF] came in with an ELISA of 0.6 OD450.

Molecule B1 registered an ELISA of 0.342 OD450.

The target in another test is T2, light-activated rhodopsin (bovine rod …). The test can be described thus: LacI display panning, light-activated ROS membranes, peptide 8 added in rounds 3 and 4. The method, then: The panning process is illustrated in FIG. 1. For screening of the library by “panning,” rhodopsin receptors prepared according to Example 5 were immobilized directly on Immulon 4 (Dynatech) microtiter wells (0.1-1 μg of protein per well) in cold 35 mM HEPES, pH 7.5, containing 0.1 mM EDTA, 50 mM KCl and 1 mM dithiothreitol (HEK/DTT). After shaking for one hour at 4° C., unbound membrane fragments were washed away with HEK/DTT. The wells were blocked with 100 μl 2% BSA in HEKL (35 mM HEPES; 0.1 mM EDTA; 50 mM KCl; 0.2 M α-lactose; pH 7.5, with 1 mM DTT). For rounds 1 and 2, BSA was used for blocking; in later rounds 1% nonfat dry milk was used. For the first round of panning, about 24 wells of a 96-well plate were used. In subsequent rounds, 8 wells with receptor and 8 wells without receptor were prepared.
To identify peptides having even higher affinity to light-activated rhodopsin than those identified by the panning procedure described in Example 7, a high affinity peptide was included in the library incubations in rounds three and four. […] Screening of the Gαt library was performed as in Example 7, except that 10 μL 100 μM ([…]) peptide 8 was included in the wells in rounds three and four. […] Residues L344, C347 and G348 remained stable whether peptide 8 was included in the screen or not.
Regarding ILENLKDCGLL (peptide, not shown: small tags and cut ends, also: fused to LacI carrier via linker, letters not given here) [Clone No. 3 (Table XVIII) ILENLKDCGLL], the binding result is on record as “binds”.
